Article PMC11555651 (Biochemical Journal, 2024)

T1: Aurora-A kinase domain 122–403 C290A,C393A (UniProt O14965 122-403, C290A | C393A)
T1 construct: Aurora-A Ser/Thr kinase, kinase domain residues 122-403 with C290A and C393A; also called Aurora-A 122–403, C290A, C393A
T1 sequence (looked up): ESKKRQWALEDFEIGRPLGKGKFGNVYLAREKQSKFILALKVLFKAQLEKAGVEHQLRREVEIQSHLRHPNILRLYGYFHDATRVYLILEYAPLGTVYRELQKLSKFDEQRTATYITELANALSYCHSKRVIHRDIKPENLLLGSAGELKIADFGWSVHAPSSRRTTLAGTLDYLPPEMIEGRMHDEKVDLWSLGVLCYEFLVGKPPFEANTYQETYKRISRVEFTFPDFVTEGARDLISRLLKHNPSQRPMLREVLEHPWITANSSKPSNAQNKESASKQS


What was measured:
[1] = biological target: N-myc peptide 47-66 (Homo sapiens) (UniProt P04198); settings: cited from earlier work
[2] = biological target: T1, Aurora-A kinase domain 122–403 …; assay: NMR titration; 1H-15N HSQC of 15N-labelled N-myc constructs (150-315 uM); unlabelled Aurora-A kinase domain (305-400 uM stock) added up to [N-myc]:[Aurora-A] 1:1.4; 20 mM (K/H)3PO4 pH 6.5, 150 mM NaCl, 2 mM beta-mercaptoethanol, 1% glycerol, 5 mM MgCl2, 5 mM ADP; 25°C stated for N-myc TAD; settings: both partners purified

Sequence of Fbxw7–Skp1 (Q969H0 whole entry): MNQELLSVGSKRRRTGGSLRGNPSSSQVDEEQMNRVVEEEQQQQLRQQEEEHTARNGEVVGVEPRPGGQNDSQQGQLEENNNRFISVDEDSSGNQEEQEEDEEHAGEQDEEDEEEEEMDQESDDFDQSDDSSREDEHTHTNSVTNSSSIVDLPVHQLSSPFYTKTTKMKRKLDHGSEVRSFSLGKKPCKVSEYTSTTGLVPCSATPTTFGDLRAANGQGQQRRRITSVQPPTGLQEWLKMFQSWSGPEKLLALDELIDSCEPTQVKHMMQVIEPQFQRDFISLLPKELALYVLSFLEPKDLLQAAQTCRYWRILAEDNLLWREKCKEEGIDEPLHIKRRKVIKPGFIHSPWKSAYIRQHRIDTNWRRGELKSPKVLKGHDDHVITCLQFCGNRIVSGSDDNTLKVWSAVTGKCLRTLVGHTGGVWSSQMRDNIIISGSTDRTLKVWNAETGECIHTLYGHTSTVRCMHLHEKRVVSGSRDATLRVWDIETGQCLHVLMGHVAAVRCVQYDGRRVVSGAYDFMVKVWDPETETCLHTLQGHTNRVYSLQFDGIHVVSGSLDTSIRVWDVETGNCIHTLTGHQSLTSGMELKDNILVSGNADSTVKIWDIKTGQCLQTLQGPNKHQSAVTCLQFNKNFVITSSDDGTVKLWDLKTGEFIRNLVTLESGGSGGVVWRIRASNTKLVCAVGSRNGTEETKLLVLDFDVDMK
Sequence of Fbxw7–Skp1 (P63208 2-163, further chain): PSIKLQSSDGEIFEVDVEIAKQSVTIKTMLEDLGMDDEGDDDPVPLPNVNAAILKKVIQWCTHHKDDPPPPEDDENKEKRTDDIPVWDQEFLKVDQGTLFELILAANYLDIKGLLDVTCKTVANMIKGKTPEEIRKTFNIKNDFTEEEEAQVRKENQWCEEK

binding result [2] | Molecule | Kd [1]
 | Fbxw7–Skp1 (from UniProt Q969H0) | < 10 nM
binds | N-myc_(1–137) TAD (domain or fragment, whole N-myc is said to have 464 residues; 15N-labelled for the NMR titration; also called N-myc TAD; not shown: His-NusA, N-terminal, cleaved) GAMMPSCSTSTMPGMICKNPDLEFDSLQPCFYPDEDDFYFGGPDSTPPGEDIWKKFELLPTPPLSPSRGFAEHSSEPPSWVTEMLLENELWGSPAEEDAFGLGGLGGLTPNPVILQDCMWSGFSAREKLERAVSEKLQHG | 
binds | N-myc_(64–137) (domain or fragment, 15N-labelled for the NMR titration; also called C-terminal truncation of the TAD; not shown: His-NusA, N-terminal, cleaved) GAMGSRGFAEHSSEPPSWVTEMLLENELWGSPAEEDAFGLGGLGGLTPNPVILQDCMWSGFSAREKLERAVSEKLQHG | 
